In this data set the test system is T1, NtcA (His6-tagged) (Nostoc sp. PCC 7120), ORF:1390dea6.
T1 sequence: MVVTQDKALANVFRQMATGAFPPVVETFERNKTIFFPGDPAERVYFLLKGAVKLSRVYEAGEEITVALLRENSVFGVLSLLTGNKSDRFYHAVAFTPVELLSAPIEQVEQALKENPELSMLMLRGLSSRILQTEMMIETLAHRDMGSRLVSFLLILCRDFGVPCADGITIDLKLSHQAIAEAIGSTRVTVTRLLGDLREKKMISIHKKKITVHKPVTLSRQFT
As to the kind of experiment: EMSA. The note with it: EMSA as in Muro-Pastor et al. 1999; buffer, salt, pH and temperature not given in the material. A general note: A gel shift assay detects complexes by their altered migration in electrophoresis.

This note sets out measurements from article PMC6166021.

As for “ATCGATACTCTCGCAACAACGAAAGAATAGTAGTTTCATCAACCTCTAAACCTTTATATCTCCATACCCCTACACCCTAAACCCATATTTTGAGGGTATAGCGTAAGAACCCTACACCCGTCAGCCTCTTCTCCCCCCATTGACATTTTTGAAATATTCTGAAAGATAGAGGCTGATTACCTCCGGGTATATCTTTTTTCGGTAAATTTTTTCAAAAAAACTGTGTTGCCTGTATGAATATTGTTAAGAAAAGTTGCCCGTTGCATTTTGGGAATACGCAGCCGGGTTTTAACTC (double strand) [nsrR1 promoter fragment, mutated NtcA site (TAC to ATG)]”, the binding entry is given as “no binding”.

Regarding “ATCGATACTCTCGCAACAACGAAAGAATAGTAGTTTCATCAACCTCTAAACCTTTATATCTCCATACCCCTACACCCTAAACCCATATTTTGAGGGTATAGCGTAAGAACCCTACACCCGTCAGCCTCTTCTCCCCCCATTGACATTTTTGAAATATTCTGAAAGATAGAGGCTGATTACCTCCGGGTATATCTTTTTTCGGTAAATTTTTTCAAAAAAACTGTGTTGCCTGTTACAATATTGTTAAGAAAAGTTGCCCGTTGCATTTTGGGAATACGCAGCCGGGTTTTAACTC (double strand) [nsrR1 promoter fragment WT (-239 to +50)]”, the binding entry is “binds”.
